Source: patent US20200283521A1 (GRANULAR THERAPEUTICS, published 2020)

T1: TGM2 (human, UniProt P21980)
T1 construct: expressed in transfected HEK293 cells
T1 sequence (looked up): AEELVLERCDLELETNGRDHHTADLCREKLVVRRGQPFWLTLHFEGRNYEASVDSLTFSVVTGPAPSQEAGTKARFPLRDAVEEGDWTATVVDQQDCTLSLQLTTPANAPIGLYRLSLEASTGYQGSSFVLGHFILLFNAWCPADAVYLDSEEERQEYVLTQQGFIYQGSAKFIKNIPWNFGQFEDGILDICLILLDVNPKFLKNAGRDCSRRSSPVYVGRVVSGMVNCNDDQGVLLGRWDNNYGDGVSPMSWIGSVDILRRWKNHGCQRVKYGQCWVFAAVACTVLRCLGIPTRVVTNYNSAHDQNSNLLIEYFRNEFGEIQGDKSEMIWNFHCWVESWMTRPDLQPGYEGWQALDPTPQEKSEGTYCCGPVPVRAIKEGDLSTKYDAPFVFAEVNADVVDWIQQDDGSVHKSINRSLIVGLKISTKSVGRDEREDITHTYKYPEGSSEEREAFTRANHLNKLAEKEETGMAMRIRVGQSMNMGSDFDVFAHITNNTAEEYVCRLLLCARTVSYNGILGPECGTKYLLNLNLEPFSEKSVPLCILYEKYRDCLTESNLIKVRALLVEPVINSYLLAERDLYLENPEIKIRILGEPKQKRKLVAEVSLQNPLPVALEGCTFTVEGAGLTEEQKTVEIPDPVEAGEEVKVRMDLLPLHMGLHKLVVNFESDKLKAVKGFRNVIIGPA

T2: hCMET-Fc (The natural ectodomain is cleaved by furin after residue 307 into disulfide-linked alpha and beta chains. It is given here as one continuous stretch.)
T2 construct: member of the panel m9
T2 chain: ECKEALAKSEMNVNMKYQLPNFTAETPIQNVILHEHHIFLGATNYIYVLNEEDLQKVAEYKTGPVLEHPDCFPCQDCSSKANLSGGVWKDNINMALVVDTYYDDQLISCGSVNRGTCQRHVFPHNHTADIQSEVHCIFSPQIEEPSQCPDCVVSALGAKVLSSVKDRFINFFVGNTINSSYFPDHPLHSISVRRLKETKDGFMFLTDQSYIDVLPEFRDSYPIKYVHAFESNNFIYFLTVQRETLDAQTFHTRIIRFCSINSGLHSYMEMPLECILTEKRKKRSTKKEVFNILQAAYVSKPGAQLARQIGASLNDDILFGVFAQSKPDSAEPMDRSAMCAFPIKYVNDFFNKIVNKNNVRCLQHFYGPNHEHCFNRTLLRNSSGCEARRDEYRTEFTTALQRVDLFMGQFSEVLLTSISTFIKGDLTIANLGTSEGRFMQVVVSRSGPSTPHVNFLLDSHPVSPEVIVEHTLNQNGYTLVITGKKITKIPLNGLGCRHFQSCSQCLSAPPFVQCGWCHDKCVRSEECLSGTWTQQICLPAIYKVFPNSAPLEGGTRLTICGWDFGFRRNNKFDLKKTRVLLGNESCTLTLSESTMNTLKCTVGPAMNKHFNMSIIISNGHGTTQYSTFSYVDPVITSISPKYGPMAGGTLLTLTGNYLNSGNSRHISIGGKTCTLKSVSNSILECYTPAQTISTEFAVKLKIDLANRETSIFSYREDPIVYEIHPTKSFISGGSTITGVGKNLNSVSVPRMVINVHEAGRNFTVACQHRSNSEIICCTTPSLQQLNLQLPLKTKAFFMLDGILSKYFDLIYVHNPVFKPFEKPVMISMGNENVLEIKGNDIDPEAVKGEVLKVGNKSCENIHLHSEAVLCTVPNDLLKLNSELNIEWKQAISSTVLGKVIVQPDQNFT

T3: hVCAM-Fc
T3 construct: member of the panel m9
T3 chain: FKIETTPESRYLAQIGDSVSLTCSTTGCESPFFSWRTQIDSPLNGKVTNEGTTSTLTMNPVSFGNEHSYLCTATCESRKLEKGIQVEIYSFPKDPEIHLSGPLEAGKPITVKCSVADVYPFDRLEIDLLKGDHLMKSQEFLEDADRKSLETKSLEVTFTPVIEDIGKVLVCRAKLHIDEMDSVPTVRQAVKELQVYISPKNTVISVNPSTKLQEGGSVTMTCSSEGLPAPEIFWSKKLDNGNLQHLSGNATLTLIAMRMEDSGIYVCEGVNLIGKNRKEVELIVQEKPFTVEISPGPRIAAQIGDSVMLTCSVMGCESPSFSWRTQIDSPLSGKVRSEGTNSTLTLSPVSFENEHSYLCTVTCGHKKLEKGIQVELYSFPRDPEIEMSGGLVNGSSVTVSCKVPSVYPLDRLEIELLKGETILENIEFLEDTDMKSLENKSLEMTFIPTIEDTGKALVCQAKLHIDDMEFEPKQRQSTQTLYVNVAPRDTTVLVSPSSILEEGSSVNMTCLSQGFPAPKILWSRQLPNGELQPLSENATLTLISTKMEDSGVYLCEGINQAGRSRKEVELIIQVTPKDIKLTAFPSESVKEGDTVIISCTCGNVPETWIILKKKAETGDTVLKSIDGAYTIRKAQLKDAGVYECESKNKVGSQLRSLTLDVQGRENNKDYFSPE

T4: hOX40-Fc
T4 construct: member of the panel m9
T4 chain: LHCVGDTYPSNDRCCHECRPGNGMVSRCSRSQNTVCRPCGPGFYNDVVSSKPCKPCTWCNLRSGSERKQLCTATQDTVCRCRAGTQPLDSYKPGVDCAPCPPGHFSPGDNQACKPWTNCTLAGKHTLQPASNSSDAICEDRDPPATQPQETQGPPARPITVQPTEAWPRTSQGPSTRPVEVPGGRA


Assays:
TGM2 = molecular target: T1, TGM2; test: cell array, transfected fixed HEK293 cells
Description: (§1) Transfection of all plasmids was confirmed by screening for the co-encoded marker ZS green (FIG. 13A).
(§2) Primary hits (duplicate spots) were identified by analysing fluorescence (AF647 and ZsGreenl) on ImageQuant. Vectors encoding all hits were sequenced to confirm their correct identities. […] Slides were analysed as above.

MSN = molecular target: T5, MSN (human, UniProt P26038); test: cell array, transfected fixed HEK293 cells
T5 construct: expressed in transfected HEK293 cells
Description: as §1, §2

hCMET-Fc = molecular target: T2, hCMET-Fc; test: direct ELISA on coated protein, IgG1
hBAFFR-Fc = molecular target: T6, hBAFFR-Fc (human, UniProt Q96RJ3); test: direct ELISA on coated protein, IgG1
T6 construct: Fc fusion; member of the panel m9

hVCAM-Fc = molecular target: T3, hVCAM-Fc; test: direct ELISA on coated protein, IgG1
hCD4 = molecular target: T7, hCD4 (human, UniProt P01730); test: direct ELISA on coated protein, IgG1
T7 construct: purified recombinant protein; member of the panel m9

hLTBR-Fc = molecular target: T8, hLTBR-Fc (human, UniProt P36941); test: direct ELISA on coated protein, IgG1
T8 construct: Fc fusion; member of the panel m9

hOX40-Fc = molecular target: T4, hOX40-Fc; test: direct ELISA on coated protein, IgG1
h4-1BB-Fc = molecular target: T9, h4-1BB-Fc; test: direct ELISA on coated protein, IgG1
T9 construct: member of the panel m9
T9 sequence (chain, as listed by the source limits assumed): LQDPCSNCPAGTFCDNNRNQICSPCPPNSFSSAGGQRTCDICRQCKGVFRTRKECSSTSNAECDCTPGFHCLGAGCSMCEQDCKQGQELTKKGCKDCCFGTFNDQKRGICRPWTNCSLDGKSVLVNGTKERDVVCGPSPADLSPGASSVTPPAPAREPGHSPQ

T6 sequence (Q96RJ3 7-71 limits assumed): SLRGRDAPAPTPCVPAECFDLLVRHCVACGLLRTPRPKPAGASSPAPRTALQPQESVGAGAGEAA
T8 sequence (P36941 28-227 limits assumed): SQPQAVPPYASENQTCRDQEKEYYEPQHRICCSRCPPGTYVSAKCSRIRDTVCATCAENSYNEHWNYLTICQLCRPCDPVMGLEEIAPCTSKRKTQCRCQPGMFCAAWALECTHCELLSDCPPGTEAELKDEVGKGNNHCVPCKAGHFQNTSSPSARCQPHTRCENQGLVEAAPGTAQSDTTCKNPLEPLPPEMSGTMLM
T5 sequence (P26038 2-577 limits assumed): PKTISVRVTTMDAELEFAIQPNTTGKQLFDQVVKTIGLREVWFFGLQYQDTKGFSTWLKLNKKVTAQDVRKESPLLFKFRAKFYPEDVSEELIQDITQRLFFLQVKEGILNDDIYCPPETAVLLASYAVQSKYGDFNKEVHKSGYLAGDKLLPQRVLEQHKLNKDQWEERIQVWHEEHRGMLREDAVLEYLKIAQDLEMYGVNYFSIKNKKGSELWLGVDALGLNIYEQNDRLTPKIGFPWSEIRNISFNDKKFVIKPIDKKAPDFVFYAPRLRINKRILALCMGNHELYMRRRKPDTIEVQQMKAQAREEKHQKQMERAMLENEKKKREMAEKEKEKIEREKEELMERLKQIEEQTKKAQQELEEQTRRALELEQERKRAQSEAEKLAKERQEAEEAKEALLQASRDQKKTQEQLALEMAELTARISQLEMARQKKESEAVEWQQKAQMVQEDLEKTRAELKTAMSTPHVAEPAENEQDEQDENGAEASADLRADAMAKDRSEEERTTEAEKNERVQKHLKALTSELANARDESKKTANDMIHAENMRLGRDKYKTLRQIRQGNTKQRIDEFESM

| binding result (TGM2) | binding result (MSN) | binding result (hCMET-Fc) | binding result (hBAFFR-Fc) | binding result (hVCAM-Fc) | binding result (hCD4) | binding result (hLTBR-Fc) | binding result (hOX40-Fc) | binding result (h4-1BB-Fc) | Binder |
| --- | --- | --- | --- | --- | --- | --- | --- | --- | --- |
| no binding (tested: 2 µg/ml) | no binding (tested: 2 µg/ml) |  |  |  |  |  |  |  | humanized h37M, human IgG1 (antibody, V domains shown, human IgG1; terbium-labelled as the tracer of the HTRF assays; also called C-KIT-h37M; h37M-IgG1) VH: QVQLVQSGAEVKKPGASVKLSCKASGYTFTDYYINWVRQAPGKGLEWIARIYPGSGNTYYNEKFKGRATLTADKSTSTAYMQLSSLRSEDTAVYFCARGVYYFDYWGQGTTVTVSS VL: DIVMTQSPSSLSASVGDRVTITCKASQNVRTNVAWYQQKPGKAPKALIYSASYRYSGVPDRFTGSGSGTDFTLTISSLQPEDFADYFCQQYNSYPRTFGGGTKVEIK |
|  |  | no binding (tested: 1 µg/ml) | no binding (tested: 1 µg/ml) | no binding (tested: 1 µg/ml) | no binding (tested: 1 µg/ml) | no binding (tested: 1 µg/ml) | no binding (tested: 1 µg/ml) | no binding (tested: 1 µg/ml) | MH5, human IgG1 (antibody, V domains shown, IgG1; also called C-KIT-MH5; C-KIT-MHS) VH: QVQLVQSGAEVKKPGASVKVSCKASGYTFTDYYMNWVRQAPGQGLEWMGRIYPGSGNTYYAQKFQGRVTMTRDTSTSTVYMELSSLRSEDTAVYYCARGVYYYDYWGQGTLVTVSS VL: DIQMTQSPSSLSASVGDRVTITCRASQGIRTNLAWFQQKPGKAPKSLIYSASSLQSGVPSRFSGSGSGTDFTLTISSLQPEDFATYYCQQYANYPRTFGGGTKVEIK |
